{"source": "patent EP0980526B1", "about": "(IMPERIAL CANCER RESEARCH TECHNOLOGY LIMITED, dated 1998)", "target": "T1, AAD-ER (acidic activation domain fused to the LBD of the wild-type ER) (human, UniProt P03372 282-595)", "T1 construct": "range 282-595; Yeast two-hybrid prey; tested with or without 10^-7 M 17-beta-estradiol (E2); also called LBD of the ER; ER LBD", "T1 sequence (looked up)": "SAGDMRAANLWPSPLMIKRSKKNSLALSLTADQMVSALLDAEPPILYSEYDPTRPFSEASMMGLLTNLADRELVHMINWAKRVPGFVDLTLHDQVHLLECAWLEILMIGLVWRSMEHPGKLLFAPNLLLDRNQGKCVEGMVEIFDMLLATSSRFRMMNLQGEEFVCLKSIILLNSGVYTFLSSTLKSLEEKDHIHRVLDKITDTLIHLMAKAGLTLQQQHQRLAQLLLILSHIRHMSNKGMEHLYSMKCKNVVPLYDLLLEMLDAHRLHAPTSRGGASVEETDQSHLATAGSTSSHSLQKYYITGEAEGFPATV", "test": "yeast two-hybrid"}
{"binder": "DBD alone (other, human, UniProt P03372 176-282, looked up, Two-hybrid bait control without a motif) MESAKETRYCAVCNDYASGYHYGVWSCEGCKAFFKRSIQGHNDYMCPATNQCTIDKNRRKSCQACRLRKCYEVGMMKGGIRKDRRGGRMLKHKRQRDDGEGRGEVGS", "values": [{"measurement": "binding result", "result": "no binding"}]}
